In US20250163119A1, “COMPOUNDS FOR THE TREATMENT OF DIABETES OR OBESITY” (Eli Lilly and Company, priority 2023, published 2025):
*1 amine or outer side, *2 acyl side, *3 side chain or, on linkers, in order; H or OH if unused. Where no end group is shown, it is not given here. Side-chain parts run from the residue outwards. [ ]: non-standard residue; d: D form. The star is where a group is joined. C20 diacid = O=C(O)CCCCCCCCCCCCCCCCCCC(=O)*; γGlu = O=C(O)[C@H](CCC(=O)[*:2])N[*:1]; εLys = N[C@@H](CCCCN[*:1])C(=O)[*:2]; NMeI = CC[C@H](C)[C@H](NC)C(=O)O; pGlu = O=C1CC[C@@H](C(=O)O)N1; αMeL = CC(C)C[C@](C)(N)C(=O)O; AEEA = NCCOCCOCC(=O)O; Aib = CC(C)(N)C(=O)O

T1: human CRHR1 (Homo sapiens, UniProt P34998)
T1 construct: expressed in transfected cells
T1 sequence (P34998 24-415): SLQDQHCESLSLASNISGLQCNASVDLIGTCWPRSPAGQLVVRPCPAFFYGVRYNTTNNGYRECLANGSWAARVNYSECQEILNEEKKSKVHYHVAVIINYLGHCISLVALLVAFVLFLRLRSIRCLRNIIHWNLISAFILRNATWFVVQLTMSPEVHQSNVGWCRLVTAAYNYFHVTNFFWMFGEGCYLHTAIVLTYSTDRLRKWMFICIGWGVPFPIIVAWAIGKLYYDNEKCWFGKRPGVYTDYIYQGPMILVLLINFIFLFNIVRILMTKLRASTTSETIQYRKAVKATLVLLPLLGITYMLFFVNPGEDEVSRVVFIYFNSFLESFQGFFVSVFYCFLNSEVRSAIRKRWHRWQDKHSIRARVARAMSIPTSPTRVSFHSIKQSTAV

T2: human CRHR2 (Homo sapiens, UniProt Q13324)
T2 construct: expressed in transfected cells
T2 sequence (Q13324 1-438 isoform Q13324-2): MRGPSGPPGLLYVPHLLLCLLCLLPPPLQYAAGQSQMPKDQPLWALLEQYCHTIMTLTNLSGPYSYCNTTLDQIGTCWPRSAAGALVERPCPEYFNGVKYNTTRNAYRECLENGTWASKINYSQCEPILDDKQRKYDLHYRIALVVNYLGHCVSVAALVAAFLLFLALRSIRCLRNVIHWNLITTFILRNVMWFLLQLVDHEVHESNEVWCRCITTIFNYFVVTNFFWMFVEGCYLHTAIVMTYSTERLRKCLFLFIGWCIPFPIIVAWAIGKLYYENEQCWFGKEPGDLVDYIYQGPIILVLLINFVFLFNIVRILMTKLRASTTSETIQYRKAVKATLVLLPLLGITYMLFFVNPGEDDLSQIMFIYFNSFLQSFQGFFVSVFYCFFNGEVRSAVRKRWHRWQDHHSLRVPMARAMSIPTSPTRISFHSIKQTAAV

T3: human corticotropin-releasing hormone receptor 1 (CRHR1) (human, UniProt P34998 24-415)
T3 sequence (looked up): T1 sequence (P34998 24-415)

B1: polypeptide comprising SEQ ID NO:25 (peptide)
peptide: [γGlu]GSPSIVTS[αMeL]DVPT[Aib][αMeL]LQKILEQERAEKARQQATEAAEILAQV-NH2
modifications: not fully specified (residue 1, N-terminus); also: Glu1 linked through its gamma-carboxyl to Gly2

Assays:
human CRHR1 = molecular target: T1, human CRHR1; assay: Human CRHR1 cAMP assay (HTRF) in HEK293 cells stably expressing human CRHR1; assay type: cell-based; conditions: HEK293 cells overexpressing human CRHR1; relative EC50, maximum 66 nM human UCN1; mean ± SE; read-out: hCRHR1 cAMP EC50 (pM, ± SE)
How it was run: (§1)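 Peptide-stimulated cAMP was measured in stable HEK293 lines by HTRF ratio (665/620 nm), converted to pmol/well via standard curve. Assay buffer contained 0.25 mM IBMX, 0.1% casein and 5 mM HEPES pH 7.4. CRHR2b cells (5,000/well) were stimulated 30 min at room temperature; CRHR1 cells (25,000/well) 1 h at 37 °C.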

[1] = system: MHC-II presented peptides on human dendritic cells; assay: MAPPS assay (MHC-Associated Peptide Proteomics); assay type: cell-based
Method: MAPPS profiles the MHC-II presented peptides on human dendritic cells treated with tested molecules. CD14+ cells, isolated from the PBMCs of normal human donors, were cultured and differentiated into immature DCs by incubation with IL-4 and GM-CSF. On day 4, culture media was replaced with fresh media containing tested molecules. On day 5, LPS was added to transform the cells into mature DCs. On day 6, cells were lysed in RIPA buffer with protease inhibitors. Immunoprecipitation of MHC-II complexes were performed using biotinylated anti-MHC-II antibody coupled to streptavidin beads. The bound complex was eluted and filtered. The isolated MHC-II peptides were analyzed by a mass spectrometer. Peptide identifications were generated by an internal proteomics pipeline using search algorithms with no enzyme and a bovine/human database with test sequences appended to the database. A KNIME workflow was used to process the identification files from the samples. Peptides identified from the test articles were aligned against the parent sequence of the test molecule. The output was used to determine the percentage of donors displaying MHC-II peptides from regions of the test molecule. Polypeptides comprising SEQ ID NOs:54, 49, 50, 29, 41, 45, 1, 22, 25 were tested in the MAPPs assay. […] Depending on the donors, up to three major clusters were observed, each slightly shifted from the others, altogether spanning residues 1-33.

human CRHR2 = molecular target: T2, human CRHR2; assay: Human CRHR2 cAMP assay (HTRF) in HEK293 cells stably expressing human CRHR2; assay type: cell-based; conditions: HEK293 cells overexpressing human CRHR2; relative EC50, maximum 10 nM human UCN2; mean ± SE; read-out: hCRHR2 cAMP EC50 (pM, ± SE)
How it was run: as §1

[2] = molecular target: T3, human corticotropin-releasing hormone …; assay: cell-based or functional assay
[3] = molecular target: rat CRHR2 (endogenous on A7r5 cells) (rat, UniProt P47866 20-411); assay: cell-based or functional assay
[4] = molecular target: T3, human corticotropin-releasing hormone …; assay: cell-based or functional assay; remark: listed apart in the source

Chain of rat CRHR2 (endogenous on A7r5 cells) (P47866 20-411): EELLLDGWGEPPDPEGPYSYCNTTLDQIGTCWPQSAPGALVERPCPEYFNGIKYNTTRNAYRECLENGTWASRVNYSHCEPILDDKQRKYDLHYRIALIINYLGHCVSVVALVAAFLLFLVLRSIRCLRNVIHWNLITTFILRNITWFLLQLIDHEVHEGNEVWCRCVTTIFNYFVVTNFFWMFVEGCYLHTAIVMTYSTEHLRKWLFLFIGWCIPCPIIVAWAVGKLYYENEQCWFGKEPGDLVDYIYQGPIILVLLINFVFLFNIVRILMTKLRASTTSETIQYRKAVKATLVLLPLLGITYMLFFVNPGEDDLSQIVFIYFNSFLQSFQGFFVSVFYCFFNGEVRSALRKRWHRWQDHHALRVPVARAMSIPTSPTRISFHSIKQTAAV

Molecule | EC50 (human CRHR1) | MAPPS Assay >10 donors with diverse MHC ([1]; donors displaying MHC-II peptides / donors tested) | peptides displayed on MHC-II complexes ([1]; human dendritic cells from normal donors) | immunogenicity compared with SEQ ID NO:54 ([1]; in the MAPPs assay and/or the T cell proliferation assay) | MAPPS Assay >10 donors with diverse MHC ([1]; percentage of donors displaying MHC-II peptides) | EC50 (human CRHR2) | Y79 cAMP EC50 [2] | A7r5 cAMP EC50 [3] | hCRHR1 cAMP EC50 [4]
γGlu-GPSIVTS[αMeL]D[dV]PI[Aib][αMeL]LQIKLEQERAEKARQQAK([AEEA-AEEA-γGlu-C20 diacid])ENTEILAQV-NH2 [SEQ ID NO: 45, γE-GPSIVTS αMeL D (D-Val) PI Aib αMeL LQIKLEQERAEKARQQAK((2-[2-(2-Amino-ethoxy)-ethoxy]-acetyl)2-γE-CO-(CH2)18-CO2H)ENTEILAQV-NH2] | 3.7e+06 pM | 0/20 | no peptides displayed on MHC-II complexes | substantial improvements in immunogenicity over a compound comprising SEQ ID NO:54 | 0% | 9 ± 3.6 pM |  |  | 
[NMeI]VTSLDVPIG[αMeL]LQKLIEQEKQEKEKQQAKENTEILAQV-NH2 (not fully specified (residue 29)) [polypeptide comprising SEQ ID NO:49] |  |  |  |  |  |  | > 10000 nM | 0.137 nM | > 10000 nM
[NMeI]VTSLDVPIG[αMeL]LQKLLEQERAEKARQQAKEAAEILAQV-NH2 (not fully specified (residue 29)) [polypeptide comprising SEQ ID NO:50] |  |  |  |  |  |  | > 10000 nM | 0.967 nM | > 10000 nM
[NMeI]VLSLDVPIGLLQILLEQEKQEKEKQQAKTNAQILAQV-NH2 (not fully specified (residue 29)) [Reference compound SEQ ID NO:54] |  |  |  |  |  |  | 6000 nM | 0.471 nM | > 10000 nM
[pGlu]GSPSGIVTS[αMeL]DVPT[Aib][αMeL]LQKILEQERAEKARQQAK([γGlu-AEEA-εLys-C20 diacid])EAAEILAQV-NH2 [polypeptide comprising SEQ ID NO:22] |  |  |  |  |  |  | 2400 nM | 0.314 nM | > 10000 nM
Ac-GSPSIVTS[αMeL]DVPT[Aib][αMeL]LQKILEQERAEKARQQAK([γGlu-AEEA-εLys-C20 diacid])EAAEILAQV-NH2 [polypeptide comprising SEQ ID NO:1] |  |  |  |  |  |  | 1400 nM | 0.157 nM | > 10000 nM
B1 |  |  |  |  |  |  | 620 nM | 0.112 nM | > 10000 nM
Ac-PPPIVTS[αMeL]D[dV]PT[Aib][αMeL]LQKLLEQERAEKARQQAK([γGlu-AEEA-εLys-C20 diacid])EAAEILAQV-NH2 [polypeptide comprising SEQ ID NO:47] |  |  |  |  |  |  | 720 nM | 1.06 nM | 2300 nM
Ac-GSPSIVTS[αMeL]DVPT[Aib][αMeL]LQKLLEQERAEKARQQAK([γGlu-AEEA-εLys-C20 diacid])EAAEILAQV-NH2 [polypeptide comprising SEQ ID NO:2] |  |  |  |  |  |  | 2100 nM | 0.544 nM | > 10000 nM
IVLSLDVPIGLLQILLEQARARAAREQATTNARILARV-NH2 (ligand) [Human urocortin-2 (UCN2)] |  |  |  |  |  |  | > 10000 nM |  | > 10000 nM
Ac-PPPIVTS[αMeL]D[dV]PT[Aib][αMeL]LQK[Aib]LEQERAEKARQQAK([γGlu-AEEA-εLys-C20 diacid])ENTEILAQV-NH2 [polypeptide comprising SEQ ID NO:46] |  |  |  |  |  |  | 4000 nM | 0.313 nM | > 10000 nM
Ac-IVTS[αMeL]D[dV]PTG[αMeL]LQIKLEQERAEKARQQAKENTEILAQV-NH2 (not fully specified (residue 29)) [polypeptide comprising SEQ ID NO:29] |  |  |  |  |  |  | 1000 nM | 0.123 nM | > 10000 nM
Ac-PPPIVTS[αMeL]DVPT[Aib][αMeL]LQKLLEQERAEKARQQAK([γGlu-AEEA-εLys-C20 diacid])EAAEILAQV-NH2 [polypeptide comprising SEQ ID NO:48] |  |  |  |  |  |  | 4500 nM | 1.16 nM | > 10000 nM
